This is an account of results in paper PMC10672205, “Towards a High-Affinity Peptidomimetic Targeting Proliferating Cell Nuclear Antigen from Aspergillus fumigatus” (Journal of Fungi, 2023).

Assay [1] deals with afumPCNA (A. fumigatus PCNA) (Aspergillus fumigatus, UniProt A0A229Y5V5). The assay is described as follows: biochemical. It counts as binding. The protocol: Surface plasmon resonance (SPR) experiments were performed as previously described. The running buffer used for ligand attachment and analyte-binding experiments was a 10 mM HEPES buffer with 150 mM NaCl, 3 mM EDTA, and 0.05% Tween-20, adjusted to pH 7.4 with 2 M NaOH. A GE CM5 (series S) sensor chip was primed with the running buffer and preconditioned with successive injections (2 × 50 s, 30 μL/min) of 50 mM NaOH, 10 mM HCl, 0.1% SDS, 0.85% H3PO4, and 50 mM glycine pH 9.5, respectively. The surface was then activated with an injection of 0.2 M 1-ethyl-3-(3-dimethylaminopropyl)carbodiimide (EDC) and 50 mM N-hydroxysuccinimide (NHS) (600 s, 10 μL/min). A. fumigatus PCNA (5 μL, 12 mg/mL) was diluted into the running buffer (245 μL). Upon the preactivation of the surface, the protein was further diluted to a final concentration of 25 μg/mL in 10 mM NaAc (~pH 4.6). This solution was immediately injected over the target flow cell (10 μL/min) to immobilize ~1500 RU. Both the target and reference flow cells were then blocked with 1.0 M ethanolamine at pH 8.5 (600 s, 10 μL/min). The chip was left to stabilize before sample injections commenced.
Peptide stock solutions for use in SPR experiments were prepared in MilliQ water. The peptide stock concentration was determined via 205 nm absorbance with NanoDrop2000. The ε205 for each peptide was calculated using an online calculator (http://nickanthis.com/tools/a205.html, accessed on 22 August 2022 [24]); however, additional glycine residue was added to each peptide sequence to account for the terminal amide of the peptides synthesized in-house. The peptide stock solution’s concentration was then calculated using Beer’s Law.
A 2-fold serial dilution was performed for each peptide, with 8 samples injected sequentially from the lowest to highest concentrations; they were preceded by a buffer-only blank injection. After each injection, the surface was regenerated with 2 M NaCl (2 × 30 s, 25 μL/min). All data were analyzed using the GE Biosystems Biacore S200 Evaluation Software, Version 1.0 (Build: 20).

Assay [2] addresses Aspergillus fumigatus proliferating cell nuclear antigen (Aspergillus fumigatus). The assay is described as follows: SPR. In general terms: In SPR one partner is held on a chip, and binding of the other changes the refractive index at the surface.
Assay [3] has as its target T1, human proliferating cell nuclear antigen (human, UniProt P12004 1-259).
T1 construct: also called hPCNA; human PCNA
The assay is described as follows: SPR; peptide against human PCNA, tested in triplicate; immobilisation of human PCNA not described here (SPR as previously described, ref. 18). As to conditions: both partners purified.

Where [4] appears, read: afumPCNA Binding Affinity KD (nM) ± SD (nM).
[5] abbreviates: read-out: afumPCNA Binding Affinity KD (nM) ± SD, SPR steady-state affinity, afumPCNA immobilised on CM5 chip (~1500 RU), 10 mM HEPES, 150 mM NaCl, 3 mM EDTA, 0.05% Tween-20, pH 7.4, 8 x 2-fold dilutions, contact 40 s, dissociation 30 s, KD ± SD.
Setting [6] is: afumPCNA Binding Affinity KD (nM) ± KD SD (nM).

Like-named read-outs stand apart in the source and are kept apart here. Ends that are not written are not given here. Peptide text beside a SMILES is read from it.

T1 sequence (P12004 1-259): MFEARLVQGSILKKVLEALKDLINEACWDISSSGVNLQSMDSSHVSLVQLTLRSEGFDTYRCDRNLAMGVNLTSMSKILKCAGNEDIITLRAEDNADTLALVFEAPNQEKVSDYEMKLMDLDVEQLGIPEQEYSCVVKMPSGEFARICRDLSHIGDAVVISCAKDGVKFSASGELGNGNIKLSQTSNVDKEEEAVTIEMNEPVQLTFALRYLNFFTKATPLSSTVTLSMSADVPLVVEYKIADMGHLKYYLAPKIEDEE

Regarding `CSCC[C@H](NC(=O)[C@H](CO)NC(=O)[C@@H](NC(=O)[C@H](CCC(N)=O)NC(=O)[C@H](CCCNC(=N)N)NC(=O)[C@H](CCCNC(=N)N)NC(=O)[C@@H](N)CCCCN)[C@@H](C)O)C(=O)N[C@H](C(=O)N[C@@H](CC(=O)O)C(=O)N[C@@H](Cc1ccc(O)cc1)C(=O)N[C@@H](Cc1ccccc1)C(=O)N[C@@H](Cc1c[nH]cn1)C(=O)N[C@@H](CO)C(=O)N[C@@H](CCCCN)C(=O)N[C@@H](CCCNC(=N)N)C(N)=O)[C@@H](C)O` [p21μ-FY150151YF] (H-KRRQTSMTDYFHSKR-NH2), the Kd in assay [1] (setting [4]) amounted to 96.4 ± 19.6 nM.

For `CSCC[C@H](NC(=O)[C@H](CCCNC(=N)N)NC(=O)[C@H](CCCNC(=N)N)NC(=O)[C@@H](N)CCCCN)C(=O)N[C@H](C(=O)N[C@@H](CO)C(=O)N[C@@H](CCSC)C(=O)N[C@H](C(=O)N[C@@H](CC(=O)O)C(=O)N[C@@H](Cc1ccccc1)C(=O)N[C@@H](Cc1ccc(O)cc1)C(=O)N[C@@H](Cc1c[nH]cn1)C(=O)N[C@@H](CO)C(=O)N[C@@H](CCCCN)C(=O)N[C@@H](CCCNC(=N)N)C(N)=O)[C@@H](C)O)[C@@H](C)O` [p21μ-Q144M] (H-KRRMTSMTDFYHSKR-NH2), the dissociation constant Kd in assay [1] (setting [5]) came out at 41400 nM.

Molecule `CC[C@H](C)[C@H](NC(=O)[C@H](CCCNC(=N)N)NC(=O)[C@@H](NC(=O)[C@H](CCC(N)=O)NC(=O)[C@H](CCCNC(=N)N)NC(=O)[C@H](CCCNC(=N)N)NC(=O)[C@@H](N)CCCCN)[C@@H](C)O)C(=O)N[C@H](C(=O)N[C@@H](CCC(=O)O)C(=O)N[C@@H](Cc1ccc(O)cc1)C(=O)N[C@@H](Cc1ccccc1)C(=O)N[C@@H](Cc1c[nH]cn1)C(=O)N[C@@H](CO)C(=O)N[C@@H](CCCCN)C(=O)N[C@@H](CCCNC(=N)N)C(N)=O)[C@@H](C)O` [p21μ-RD2] (H-KRRQTRITEYFHSKR-NH2) returned a Kd in assay [1] (Affinity KD (nM) (Table S1)) of 20.3 nM.

In assay [1] (Affinity KD (nM) (Table S1), SPR steady-state affinity against AfumPCNA, 8x 1 in 2 dilutions from Top Conc, On/Off 40/30 s), `CSCC[C@H](NC(=O)[C@H](CO)NC(=O)[C@H](CC(=O)O)NC(=O)[C@H](CCC(N)=O)NC(=O)[C@H](CCCNC(=N)N)NC(=O)[C@H](CCCNC(=N)N)NC(=O)[C@@H](N)CCCCN)C(=O)N[C@H](C(=O)N[C@@H](CC(=O)O)C(=O)N[C@@H](Cc1ccccc1)C(=O)N[C@@H](Cc1ccc(O)cc1)C(=O)N[C@@H](Cc1c[nH]cn1)C(=O)N[C@@H](CO)C(=O)N[C@@H](CCCCN)C(=O)N[C@@H](CCCNC(=N)N)C(N)=O)[C@@H](C)O` [p21μ-T145D] (H-KRRQDSMTDFYHSKR-NH2) had a Kd of 4110 nM.

Turning to `CSCC[C@H](NC(=O)[C@H](CO)NC(=O)[C@H](CCCCN)NC(=O)[C@H](CCC(N)=O)NC(=O)[C@H](CCCNC(=N)N)NC(=O)[C@H](CCCNC(=N)N)NC(=O)[C@@H](N)CCCCN)C(=O)N[C@H](C(=O)N[C@@H](CC(=O)O)C(=O)N[C@@H](Cc1ccccc1)C(=O)N[C@@H](Cc1ccc(O)cc1)C(=O)N[C@@H](Cc1c[nH]cn1)C(=O)N[C@@H](CO)C(=O)N[C@@H](CCCCN)C(=O)N[C@@H](CCCNC(=N)N)C(N)=O)[C@@H](C)O` [p21μ-T145K] (H-KRRQKSMTDFYHSKR-NH2), the Kd in assay [1] (setting [5]) amounted to 10000 nM.

`CSCC[C@H](NC(=O)[C@H](CO)NC(=O)[C@@H](NC(=O)[C@H](CCC(N)=O)NC(=O)[C@H](CCCNC(=N)N)NC(=O)[C@H](CCCNC(=N)N)NC(=O)[C@@H](N)CCCCN)[C@@H](C)O)C(=O)N[C@H](C(=O)N[C@@H](CC(=O)O)C(=O)N[C@@H](Cc1ccccc1)C(=O)N[C@@H](Cc1ccc(O)cc1)C(=O)N[C@@H](Cc1c[nH]cn1)C(=O)N[C@@H](CO)C(=O)N[C@@H](CCCCN)C(=O)N[C@@H](CCCNC(=N)N)C(N)=O)[C@@H](C)O` [p21μ] gave a Kd in assay [1] (setting [4]) of 265 ± 5.9 nM.

In turn, `CC[C@H](C)[C@H](NC(=O)[C@H](CO)NC(=O)[C@H](CCCNC(=N)N)NC(=O)[C@@H](NC(=O)[C@H](CCCNC(=N)N)NC(=O)[C@H](CCC(N)=O)NC(=O)[C@H](CCCNC(=N)N)NC(=O)[C@H](CCCNC(=N)N)NC(=O)[C@@H](N)CCCCN)C(C)C)C(=O)N[C@@H](C)C(=O)N[C@@H](CO)C(=O)N[C@@H](Cc1ccccc1)C(=O)N[C@@H](Cc1ccccc1)C(=O)N[C@@H](Cc1c[nH]cn1)C(=O)N[C@@H](CO)C(=O)N[C@@H](CCCCN)C(=O)N[C@@H](CCCNC(=N)N)C(N)=O` [p21μafumDNALIG] (H-KRRQRVRSIASFFHSKR-NH2) yielded a Kd in assay [1] (setting [6]) of 458 ± 118 nM.

`CC(C)C[C@H](NC(=O)[C@H](CCCNC(=N)N)NC(=O)[C@H](CO)NC(=O)[C@H](CCC(N)=O)NC(=O)[C@H](CCCNC(=N)N)NC(=O)[C@H](CCCNC(=N)N)NC(=O)[C@@H](N)CCCCN)C(=O)N[C@@H](CCC(=O)O)C(=O)NCC(=O)N[C@@H](Cc1ccccc1)C(=O)N[C@@H](Cc1ccccc1)C(=O)N[C@@H](Cc1c[nH]cn1)C(=O)N[C@@H](CO)C(=O)N[C@@H](CCCCN)C(=O)N[C@@H](CCCNC(=N)N)C(N)=O` [p21μafumFEN1] (H-KRRQSRLEGFFHSKR-NH2) displayed a Kd in assay [1] (setting [6]) of 713 ± 56.9 nM.

In assay [1] (setting [6]), `CC[C@H](C)[C@H](NC(=O)[C@H](CC(=O)O)NC(=O)[C@@H](NC(=O)[C@@H]1CCCN1C(=O)[C@H](CCSC)NC(=O)[C@H](CCCNC(=N)N)NC(=O)[C@H](CCCNC(=N)N)NC(=O)[C@@H](N)CCCCN)[C@@H](C)O)C(=O)N[C@@H](CCCNC(=N)N)C(=O)N[C@@H](CC(N)=O)C(=O)N[C@@H](Cc1ccccc1)C(=O)N[C@@H](Cc1ccccc1)C(=O)N[C@@H](Cc1c[nH]cn1)C(=O)N[C@@H](CO)C(=O)N[C@@H](CCCCN)C(=O)N[C@@H](CCCNC(=N)N)C(N)=O` [p21μafumRFC] (H-KRRMPTDIRNFFHSKR-NH2) gave a Kd of 94.8 ± 8.76 nM.

In the case of p21µ peptide (141-155), in assay [2], the Kd worked out at 0.265 µM.

In assay [2], p21µ-FY150151YF peptide displayed a Kd of 0.0964 µM.

B1: p21µ-afumRFC peptide (peptide)
peptide: KRRMPTDIRNFFHSKR-NH2
notes: also called p21μafumRFC; p21µRFC; source: synthetic peptide, Genscript Biotech (>95%, HPLC)
B1: in assay [3], binding was put at a Kd of 0.295 µM.

KRRQTSLTDFYHSKR-NH2 [p21µ-M147L peptide] yielded a Kd in assay [2] of 0.382 µM.

In assay [2], KRRQTSMTDFFHSKR-NH2 [p21µ-Y151F peptide] returned a Kd of 0.167 µM.

KRRQTRITEYFHSKR-NH2 [p21µ-RD2 peptide]: the Kd in assay [2] was found to be 0.0203 µM.

In assay [2], KRRQTSMTEFYHSKR-NH2 [p21µ-D149E peptide] showed a Kd of 0.401 µM.

On to KRRQKSMTDFYHSKR-NH2 [p21µ-T145K peptide], for which the dissociation constant Kd in assay [2] was 10 µM.

Turning to KRRQDSMTDFYHSKR-NH2 [p21µ-T145D peptide], the Kd in assay [2] turned out to be 4.1 µM.

In turn, KRRMTSMTDFYHSKR-NH2 [p21µ-Q144M peptide] displayed a Kd in assay [2] of 41.4 µM.

Molecule KRRQTSITDFYHSKR-NH2 [p21µ-M147I peptide] gave a Kd in assay [2] of 0.0371 µM.

Usually Kd stands for the equilibrium constant for the complex coming apart.
